The results in this text go back to article PMC3730723, “A Network of HMG-box Transcription Factors Regulates Sexual Cycle in the Fungus Podospora anserina”.

B1: PaHMG5 probe (dsDNA)
DNA 1: GTAGAGAAGCCGGAACAAAGAAAGGAACAAGCAG
DNA 2: GCTGCTTGTTCCTTTCTTTGTTCCGGCTTCTCTA
B2: mtHMG1 probe (dsDNA)
DNA 1: GGAGGGCATCTTCAACAAAGAATCTCGGCAAATA
DNA 2: GTATTTGCCGAGATTCTTTGTTGAAGATGCCCTC
B3: PaHMG8 probe (dsDNA)
DNA 1: GTGCAAACGCGGGGACAAAGAAAAAGTCTGGTGC
DNA 2: GGCACCAGACTTTTTCTTTGTCCCCGCGTTTGCA
B4: FPR1 probe (dsDNA)
DNA 1: GGTGAAGGTGAATAACAAAGAAATACACTGACGG
DNA 2: GCCGTCAGTGTATTTCTTTGTTATTCACCTTCAC
B5: FMR1 probe (dsDNA)
DNA 1: GTGCAGGATAGCCAACAAAGAAATGACTGCCACG
DNA 2: GCGTGGCAGTCATTTCTTTGTTGGCTATCCTGCA
B6: KEF1 (PaHMG9) probe (dsDNA)
DNA 1: GATCGTAGCTATAGACAAAGAAAGCAACAGATAG
DNA 2: GCTATCTGTTGCTTTCTTTGTCTATAGCTACGAT

In this data set the target is T1, PaHMG5 (HMG5His) (Podospora anserina, UniProt B2AM17 1-559).
T1 sequence: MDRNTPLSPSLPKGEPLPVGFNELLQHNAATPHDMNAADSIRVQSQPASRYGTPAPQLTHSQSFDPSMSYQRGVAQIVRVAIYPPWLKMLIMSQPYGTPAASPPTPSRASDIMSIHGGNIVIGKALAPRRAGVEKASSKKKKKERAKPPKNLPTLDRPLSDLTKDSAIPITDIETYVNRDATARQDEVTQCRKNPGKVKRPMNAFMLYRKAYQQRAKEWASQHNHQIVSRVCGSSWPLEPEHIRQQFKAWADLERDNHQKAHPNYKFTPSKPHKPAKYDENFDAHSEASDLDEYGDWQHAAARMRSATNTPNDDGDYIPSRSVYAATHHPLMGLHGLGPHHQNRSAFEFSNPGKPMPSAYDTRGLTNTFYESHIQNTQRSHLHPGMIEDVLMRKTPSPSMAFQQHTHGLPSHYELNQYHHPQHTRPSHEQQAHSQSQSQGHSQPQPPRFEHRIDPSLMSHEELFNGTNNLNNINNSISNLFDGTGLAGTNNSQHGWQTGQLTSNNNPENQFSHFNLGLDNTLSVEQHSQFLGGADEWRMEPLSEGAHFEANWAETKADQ
Briefly: EMSA; 20 mM Tris pH 9.0, 500 mM NaCl, 5 mM beta-mercaptoethanol, 5 mM MgCl2, 5% glycerol, 1.25 ug poly(dI-dC), 11 ul, on ice; 6% gel in 0.25x TBE. Particulars: protein: recombinant; tags: C-terminal His6; label: 5'-32P; 33 bp duplex, 1 nt 5' G overhang on each strand. On the technique in general: A gel shift assay detects complexes by their altered migration in electrophoresis.
Take B1: the binding result is reported as “binds”.

With B2, the binding result is reported as “binds”.

As for B3, the binding result is “binds”.

Consider B4, for which the binding result is given as “binds”.

For the molecule B5, the binding result is reported as “binds”.

Consider B6, for which the binding result was “binds”.
